The DeepSol protein solubility set

Assay: soluble on expression in E. coli; label from the status in PepcDB or PDB records

Row | Sequence | soluble on expression in E. coli
1 | MSLENYLEEELIIGGIEINYLYVCKTKLWYFVRGITMEQESDFVDLGKFLHEKSYFGEEKEVQIGSIKIDFIKKRDVIEIHEVKRGKQMEKAHIMQVLYYIYYLNSLGIKSKAILHYPKLKEIKEIELKENNKEEIKRAIKEIEYIKSLKEPPEPIYQKICKNCAYYELCFIEGHHHHHH | soluble
2 | MSLGEFVFKGLLQEKGWIENAVVKTNDFGVITSIKSDPERKDGCDYAIPGFQNAHSHAFQYAMAGLAELHSTSKTKNDFWSWRKIMYDLALNITPDQMEDIATMLYKEMLRHGYTHVAEFHYLHHDLSGEKYNNCSEMGERIIAAAKRAGIKLTLVPIFYQNGGFGRKAENEQRRFISSSFNDYKNLVEASISSSKNYEHSSVAYGIHSMRAVSAENIIKLSEQKENGAPFHIHVSEQLKEIEDSVAFLGLRPVDWLSENIDLNPDYHLVHATHLTQNEIESIAKSQANVVLCPSTEGNLGDGIFPLNEFLKHGGKWSIGTDSHVGLNPFEELRILDYGQRLISHNRNTFGNNISGDNGNIAISSALVNGRKAMGIEQTHYFEVGKSFDALIISDQHPLIQTVSLKNLTNTLVYSSDNSMYKGTIVNGDWKIKDGQHADDNIHADFIQTLNALKVREGHHHHHH | soluble
3 | MLRIGLTGGIGAGKSLLSTTFSQCGGIVVDGDVLAREVVQPGTEGLASLVDAFGRDILLADGALDRQALAAKAFRDDESRGVLNGIVHPLVARRRSEIIAAVSGDAVVVEDIPLLVESGMAPLFPLVVVVHADVELRVRRLVEQRGMAEADARARIAAQASDQQRRAVADVWLDNSGSPEDLVRRARDVWNTRVQPFAHNLAQRQIARAPARLVPADPSWPDQARRIVNRLKIACGHKALRVDHIGSTAVSGFPDFLAKDVIDIQVTVESLDVADELAEPLLAAGYPRLEHITQDTEKTDARSTVGRYDHTDSAALWHKRVHASADPGRPTNVHLRVHGWPNQQFALLFVDWLAANPGAREDYLTVKCDADRRADGELARYVTAKEPWFLDAYQRAWEWADAVHWRP | soluble
4 | MNIIWQLGTCNIRQVLAEVPEPKPPYTTLASVFKNLERKHYIKPFREGKTYHYRICISREEYATRTMHRMVDNYFTGSYKHLVQFFAAGSDISVKDLREVIDMIEKGEESE | not soluble
5 | MGSDKIHHHHHHMIQSVRIKNFKNFKNTKIDGFTKLNIITGQNNAGKSNLLEALYYLVGKSMHPCTNVLEIYDNIRKEPLTSESKSLMFYGLDTKEEIQIVTTLDNNQTLDLQIKFIASENQKVIESQIIPTAEQTQMSSQLNFTLKKNNEEIYNDHLNIAKVPNFPPIPNQSGYNRQFKNFDSNQLQKLLPFESAVIIPSDVVYRQAHMIQAVSKICSNNQLEEELNKHLNQFDNNIQAISFNTNNQLKLKVKDIKEKVPLSVFGDGLKKYLHIVSAFMADNAKTIYIDEVENGLHFSRMRLLLKNTIDFINNNKDGNLQVFMTTHSQEFIEILDQVIREKDFAHQTKLFCLKQDDQYVIPRTYYGENLEYYFENEENLFG | not soluble
6 | MDTSLIRELAELALAGSGQHCHEEALCIAEWLERLGQDEAARLIRISSLANQGRYQEALAFAHGNPWPALEPWFALCEWHLGLGAALDRRLAGLGGSSDPALADFAAGMRAQVRT | soluble
7 | STLPRFDSVDLGNAPVPADAARRFEELAAKAGTGEAWETAEQIPVGTLFNEDVYKDMDWLDTYAGIPPFVHGPYATMYAFRPWTIRQFAGFSTAKESNAFYRRNLAAGQKGLSVAFDLPTHRGYDSDNPRVAGDVGMAGVAIDSIYDMRELFAGIPLDQMSVSMTMNGAVLPILALYVVTAEEQGVKPEQLAGTIQNDILKEFMVRNTYIYPPQPSMRIISEIFAYTSANMPKWNSISISGYHMQEAGATADIEMAYTLADGVDYIRAGESVGLNVDQFAPRLSFFWGIGMNFFMEVAKLRAARMLWAKLVHQFGPKNPKSMSLRTHSQTSGWSLTAQDVYNNVVRTCIEAMAATQGHTQSLHTNSLDEAIALPTDFSARIARNTQLFLQQESGTTRVIDPWSGSAYVEELTWDLARKAWGHIQEVEKVGGMAKAIEKGIPKMRIEEAAARTQARIDSGRQPLIGVNKYRLEHEPPLDVLKVDNSTVLAEQKAKLVKLRAERDPEKVKAALDKITWAAGNPDDKDPDRNLLKLCIDAGRAMATVGEMSDALEKVFGRYTAQIRTISGVYSKEVKNTPEVEEARELVEEFEQAEGRRPRILLAKMGQDGHDRGQKVIATAYADLGFDVDVGPLFQTPEETARQAVEADVHVVGVSSLAGGHLTLVPALRKELDKLGRPDILITVGGVIPEQDFDELRKDGAVEIYTPGTVIPESAISLVKKLRASLDA | soluble
8 | MGKMNHQDELPLAKVSEVDEAKRQWLQGMRHPVDTVTEPEPAEILAEFIRQHSAAGQLVARAVFLSPPYLVAEEELSVLLESIKQNGDYADIACLTGSKDDYYYSTQAMSENYAAMSLQVVEQDICRAIAHAVRFECQTYPRPYKVAMLMQAPYYFQEAQIEAAIAAMDVAPEYADIRQVESSTAVLYLFSERFMTYGKAYGLCEWFEVEQFQNP | soluble
9 | MGSDKIHHHHHHMKALVEDDLFSKIGLDDVNSGVYDGEWVKPSGKMLTVKSPIDGSEVAKISLATRADYDRLVSRAIEEFKKWRMIPAPKRGLIIREIGDELRKEKKNLGKIVTIEAGKTPSEGEGEIQEMIDISDLALGLSRQLYGLTIASERPYHRMYEQWVPLGPVAVITSFNFPASVWSWNAFIAAVDGDVVIWKPSSKAALTAVAVMKVIERVLKRNNAPNIFFLMVSSGSEGGDWITNDPRIPLVSFTGSVPVGKKISENVAKRLGKSILELGGNNGAIVSDKADIDLALRGVVFGALATAGQRCTTTRRVIVQEKIYDQFLEKLKNAYSTIKVGDPREKGVLVGPLIDEDAVKDYEHAIDLAIKQGGKLIFGGKRITIKGLEGGHYVMPTIIEAKPDMPIVKEETFASILYVMKYRTIEEAIEIHNSVPQGLSSSIFTTDLREEEAFLSPYGSDCGLANVNTSTAGAEIGGAFGGEKDTGGGRESGSDAWKYYMRRQTVTKNWGQTLPLAQDVVFEF | not soluble
10 | MGHHHHHHSHLTTKEDVFDAIVTLKVRGAPAIGITAAFGLALAAKDIETDNVTEFRRRLEDIKQYLNSSRPTAINLSWALERLSHSVENAISVNEAKTNLVHEAIQIQVEDEETCRLIGQNALQLFKKGDRIMTICNAGSIATSRYGTALAPFYLAKQKDLGLHIYACETRPVLQGSRLTAWELMQGGIDVTLITDSMAAHTMKEKQISAVIVGADRIAKNGDTANKIGTYGLAILANAFDIPFFVAAPLSTFDTKVKCGADIPIEERDPEEVRQISGVRTAPSNVPVFNPAFDITPHDLISGIITEKGIMTGNY | not soluble
11 | MGSDKIHHHHHHMKKYHYSQAPLPFVGQKRMFASEFRKVLKRFSDRTVFVDLFGGSGLLSHITKRERPDATVIYNDHDNYRERLENISRTNALLSDLRRLSEGIPRHRMLSKKMHGMFLERIRREESTGFVDYLTISSSLLFSGKYARNIGELGKLNFYNNMRLSDYCCEGYLDGLEVVYCDYRELVDRYRDSPDVVFLIDPPYMATDISTYRMDWKLTDYLDVLLVLEGHPFIYFTSGKSPILDFCRWMEEHPETGNPFKGAGISTLTARMNYSSSYTDIMLYKEMTEAA | not soluble
12 | MGSDKIHHHHHHMRPAPSIVEVVAAIIIGSDGSFLLARRPEGKPYAGYWEFPGGKVNPEESLLRALKRELLEELGIHVKHAYPWITRTFTYPHARVRLHFYRVVEWHGEPHPHEDQELSWQFADNVSVEPLLPANAPVLRALALPPVYGITNAAEWGPQIAAARIGHALQKGLRLVQLREKGMRSKALDAFAREVTALAHHYGARILVNSGTGNESLCQELDMDGIHFTSADLMNLSKRPDVEWCAASCHNAEELFRAEQLEMDFAVLAPVLPTLSHPDSPVLGWRKLARIIHGSAIPVYALGGLQSEDLAIAWEHGAHGIALMRRIEQVRGTGQKA | not soluble
13 | MGSDKIHHHHHHMTQLKTLPIYDPTLFEGAAEVYAQYRTKYPPAVFDKLTEIFNLNGQGRLLDLGTGPGLIAIPLSTKFQEVVAIDPDPEMLKEAQRQAATAGANNITWLEQGAELINPSLGVFKLATIGRAFHWMERQLVLERLYELLADDGAIALLNTGDDPWKSPLPWKQAAIGVVKKWLGEERRTGQRGQGIRKPVDPPHEVVIANSKFARQEVHEVTFEKSWTVSSYLGYLYTTAFSLKIFYGDKAEEFEADIKDALLAVEPSGHFTEELKATIQVVWKH | not soluble
14 | MSGIFSVYVGNAPFQTTEEELGNFFSSIGQINNVRIVCDRETGRPRGFAFIEFAEEGSAQRAVEQMNGAEFNGRPLRVNLANK | soluble
